Reference: patent US20230357420A1 (VILLARIS THERAPEUTICS, published 2023)

T1: Rhesus CD122 His tag (rhesus monkey, UniProt Q38J85 27-240 (cynomolgus entry))
T1 construct: also called rhCD122; cynomolgus and/or rhesus monkey CD122 His tag; not shown: His tag
T1 sequence: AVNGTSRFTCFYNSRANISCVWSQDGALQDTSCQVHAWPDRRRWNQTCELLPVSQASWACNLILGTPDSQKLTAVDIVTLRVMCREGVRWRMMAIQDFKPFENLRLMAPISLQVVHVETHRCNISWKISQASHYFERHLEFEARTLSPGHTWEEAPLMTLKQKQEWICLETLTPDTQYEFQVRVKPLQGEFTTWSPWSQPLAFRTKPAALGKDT

T2: Human CD122 His tagged (human, UniProt P14784 27-240)
T2 construct: also called hCD122; monomeric antigen; not shown: His tag
T2 sequence: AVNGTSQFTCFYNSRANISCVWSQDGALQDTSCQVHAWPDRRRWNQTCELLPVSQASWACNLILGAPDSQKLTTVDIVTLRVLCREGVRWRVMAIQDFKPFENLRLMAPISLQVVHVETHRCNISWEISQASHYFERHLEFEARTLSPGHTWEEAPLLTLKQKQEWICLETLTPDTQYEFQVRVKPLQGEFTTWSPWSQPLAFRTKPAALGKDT


How the values were obtained:
Rhesus CD122 His tag = target: T1, Rhesus CD122 His tag; assay: Biacore SPR, Fab
Human CD122 His tagged = target: T2, Human CD122 His tagged; assay: Biacore SPR, Fab

Binder | Kd (Rhesus CD122 His tag) | Kd (Human CD122 His tagged)
FAB01 (Fab, V domains shown, 06F11-V optimization variant) VH: not shown VL: DIQMTQSPSSLSASVGDRVTITCQASSSVSFMYWYQQRPGKAPRLLIYDTSNLASGVPSRFSGSGSGTSYTFTISSLQPEDIATYYCQQWDTYPLTFGGGTKVEIK | 14.4 nM | 33.6 nM
FAB16 (Fab, V domains shown, 06F11-V optimization variant) VH: EVQLLESGGGLVQPGGSLRLSCAASGFSVTSYGVHWIRQAPGKGLEWLGVIWSGGSTDYNAAFISRLTISKDNSKNTVYFQMNSLRAEDTAVYYCARAGDYNYDGFAYWGQGTLVTVSS VL: DIQMTQSPSSLSASVGDRVTITCQASSSVSFMYWYQQRPGKAPRLLIYDTSNLASGVPSRFSGSGSGTSYTFTISSLQPEDIATYYCQQWDTYPLTFGGGTKVEIK | 5.04 nM | 8.56 nM
FAB03 (Fab, V domains shown, 06F11-V optimization variant) VH: not shown VL: DIQMTQSPSSLSASVGDRVTITCQASSSVSFMYWYQQRPGKAPRLLIYDTSNLASGVPSRFSGSGSGTSYTFTISSLQPEDIATYYCQQWSTYPLTFGQGTKVEIK | 20.6 nM | 38.6 nM
FAB04 (Fab, V domains shown, 06F11-V optimization variant) VH: EVQLLESGGGLVQPGGSLRLSCAASGFTVTSYAVHWVRQAPGKGLEWLGVIWSGGSTDYNAAFISRLTISKDNSKNTVYFQMNSLRAEDTAVYYCARAGDANYDGFAYWGQGTLVTVSS VL: DIQMTQSPSSLSASVGDRVTITCQASSSVSFMYWYQQRPGKAPRLLIYDTSNLASGVPSRFSGSGSGTSYTFTISSLQPEDIATYYCQQWDTYPLTFGGGTKVEIK | 9.26 nM | 13.8 nM
FAB09 (Fab, V domains shown, 06F11-V optimization variant) VH: not shown VL: DIQMTQSPSSLSASVGDRVTITCQASSSVSFMYWYQQRPGKAPRLLIYDTSNLASGVPSRFSGSGSGTSYTFTISSLQPEDIATYYCQQWSTYPLTFGQGTKVEIK | 36.5 nM | 72.5 nM
FAB07 (Fab, V domains shown, 06F11-V optimization variant) VH: not shown VL: DIQMTQSPSSLSASVGDRVTITCQASSSVSFMYWYQQRPGKAPRLLIYDTSNLASGVPSRFSGSGSGTSYTFTISSLQPEDIATYYCQQWDTYPLTFGGGTKVEIK | 16.3 nM | 30.1 nM
FAB10 (Fab, V domains shown, 06F11-V optimization variant) VH: EVQLLESGGGLVQPGGSLRLSCAASGFTVTSYAVHWVRQAPGKGLEWLGVIWSGGSTDYNAAFISRLTISKDNSKNTVYFQMNSLRAEDTAVYYCARAGDYNYDGFAYWGQGTLVTVSS VL: DIQMTQSPSSLSASVGDRVTITCQASSSVSFMYWYQQRPGKAPRLLIYDTSNLASGVPSRFSGSGSGTSYTFTISSLQPEDIATYYCQQWDTYPLTFGGGTKVEIK | 16.7 nM | –
FAB13 (Fab, V domains shown, 06F11-V optimization variant) VH: EVQLLESGGGLVQPGGSLRLSCAASGFSVTSYGVHWIRQAPGKGLEWLGVIWSGGSTDYNAAFISRLTISKDNSKNTVYFQMNSLRAEDTAVYYCARAGDANYDGFAYWGQGTLVTVSS VL: DIQMTQSPSSLSASVGDRVTITCQASSSVSFMYWYQQRPGKAPRLLIYDTSNLASGVPSRFSGSGSGTSYTFTISSLQPEDIATYYCQQWDTYPLTFGGGTKVEIK | 3.25 nM | 5.37 nM
FAB12 (Fab, V domains shown, 06F11-V optimization variant) VH: EVQLLESGGGLVQPGGSLRLSCAASGFTVTSYAVHWVRQAPGKGLEWLGVIWSGGSTDYNAAFISRLTISKDNSKNTVYFQMNSLRAEDTAVYYCARAGDYNYDGFAYWGQGTLVTVSS VL: DIQMTQSPSSLSASVGDRVTITCQASSSVSFMYWYQQRPGKAPRLLIYDTSNLASGVPSRFSGSGSGTSYTFTISSLQPEDIATYYCQQWSTYPLTFGQGTKVEIK | 19.5 nM | 21.8 nM
FAB02 (Fab, V domains shown, 06F11-V optimization variant) VH: not shown VL: DIQMTQSPSSLSASVGDRVTITCQASQSVSFLYWYQQRPGKAPRLLIYDTSNLASGVPSRFSGSGSGTSYTFTISSLQPEDIATYYCQQWSTYPLTFGQGTKVEIK | 22.5 nM | 50.6 nM
FAB11 (Fab, V domains shown, 06F11-V optimization variant) VH: EVQLLESGGGLVQPGGSLRLSCAASGFTVTSYAVHWVRQAPGKGLEWLGVIWSGGSTDYNAAFISRLTISKDNSKNTVYFQMNSLRAEDTAVYYCARAGDYNYDGFAYWGQGTLVTVSS VL: DIQMTQSPSSLSASVGDRVTITCQASQSVSFLYWYQQRPGKAPRLLIYDTSNLASGVPSRFSGSGSGTSYTFTISSLQPEDIATYYCQQWSTYPLTFGQGTKVEIK | 15.9 nM | 17.7 nM
FAB08 (Fab, V domains shown, 06F11-V optimization variant) VH: not shown VL: DIQMTQSPSSLSASVGDRVTITCQASQSVSFLYWYQQRPGKAPRLLIYDTSNLASGVPSRFSGSGSGTSYTFTISSLQPEDIATYYCQQWSTYPLTFGQGTKVEIK | 30.7 nM | 41.2 nM
